± gives the standard deviation of the averaged measurements.
Test system: Saccharomyces cerevisiae
Assay: protein stability index of tFT-peptide fusion (C-terminal peptide) (PSI (0-1 scale)); higher = more stable (slower turnover)
Conditions: genetic background: wild type; temperature: 30 C
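Further: PSI is a weighted mean of sequencing reads over stability bins, variants kept only with over 10 reads, mCherry proximal and sfGFP distal, peptide attached via GGGS linker.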

Sequence | protein stability index
TFSIACIPSSHK | 0.652 ± 0.025
PGTNENPLSPGK | 0.7302 ± 0.0041
SPLPPSPPPLLF | 0.762 ± 0.17
EWNKMTKEKNVI | 0.686 ± 0.017
PPLLQPPPPRLL | 0.736 ± 0.048
SCPPSARLSNTC | 0.7506 ± 0.00063
LLDSLCEKTFRS | 0.677 ± 0.032
AEVRGTVGRLVG | 0.632 ± 0.011
SLPPPRSLSFPF | 0.673 ± 0.011
SFFSSSRVCLGF | 0.685 ± 0.11
FSVSSSLSSFRA | 0.717 ± 0.03
PGRLVVGAGRED | 0.707 ± 0.036
PTCPAPLPPSSP | 0.699 ± 0.061
PPPILFTEPPLA | 0.738 ± 0.0049
GVDKQSGTRNIK | 0.704 ± 0.0068
TTNLDKKILKTS | 0.6525 ± 0.0022
VYSRESMTGPVK | 0.7 ± 0.059
ATIRSSQGFKIY | 0.612 ± 0.013
EKLKNTYLNRTE | 0.641 ± 0.023
ASRADSALGITV | 0.727 ± 0.055
WCMMSWMSQFRP | 0.653 ± 0.015
VGSRLVYSAFNV | 0.69 ± 0.01
RVQLTLKGTGVT | 0.629 ± 0.029

Sequence | protein stability index
LRPLQPCGLIQC | 0.52 ± 0.022
VRGLYEHSLGSR | 0.741 ± 0.066
VLRRALIIELLE | 0.66 ± 0.025
LYQEPLRNACFC | 0.683 ± 0.1
LTFWLGSLGLWG | 0.72 ± 0.019
YRLAPVSLTMSS | 0.706 ± 0.045
VFCSCTARPPLR | 0.717 ± 0.023
AAPRGRGRFAAA | 0.699 ± 0.024
FDPSFLSVCRSK | 0.72 ± 0.021
AISVISNLTKLE | 0.617 ± 0.034
PSGGSQSLGRLG | 0.634 ± 0.034
PLHPLPPAPFPP | 0.689 ± 0.01
VPWTPPRVERVP | 0.737 ± 0.036
AASPPPRISAWL | 0.746 ± 0.02
PHSPPRPLPPPL | 0.703 ± 0.047
APPPPPPFPPLP | 0.684 ± 0.093
PLAFFSTRPTPF | 0.697 ± 0.03
KKKKKEKNKIKI | 0.689 ± 0.14
LYTNLIGFNSWI | 0.713 ± 0.037
KKRREKRTEKKQ | 0.661 ± 0.027
AQLPRSFAPPLR | 0.868 ± 0.19
SGGGGGGDCVGA | 0.687 ± 0.015
SPRFVPPPAILR | 0.558 ± 0.0088

Sequence | protein stability index
WHRAGRSRMSWS | 0.777 ± 0.1
LPGGRRPSQCPA | 0.645 ± 0.01
HLLGYSLRREFL | 0.67 ± 0.054
LAYAPLNGDVPY | 0.68 ± 0.01
WGKGGWHRRWGC | 0.673 ± 0.0098
GRCFGGVVRGAL | 0.655 ± 0.051
FMSRDPKDDTET | 0.685 ± 0.076
PVTTYPPQRHIA | 0.593 ± 0.03
RGLRRIPDAPPH | 0.757 ± 0.028
MSFFPCVFSGFG | 0.738 ± 0.033
VLRVWGCGEVGV | 0.69 ± 0.019
ITLFPKGLRANK | 0.686 ± 0.045
LGVSVVEPGRVR | 0.702 ± 0.04
PRKISSFESSLT | 0.629 ± 0.086
KREEKKTKRKKK | 0.712 ± 0.048
HPSARLPENRTP | 0.677 ± 0.038
PHAGPLHTPLRL | 0.699 ± 0.019
RGPPPTSPPSPP | 0.664 ± 0.013
VSCGVSEGDVVC | 0.675 ± 0.031
LLYALLLSLFRY | 0.595 ± 0.02
VVIPLDKGVIVQ | 0.56 ± 0.014
KKNICIKVENSY | 0.676 ± 0.031
ATYTTQQLPNYH | 0.685 ± 0.011

Sequence | protein stability index
WVGRIRGMEGWM | 0.696 ± 0.037
ARPPRASRISSL | 0.81 ± 0.044
PPSPLSRYSPRL | 0.754 ± 0.0043
FRFTSSPVFSWL | 0.708 ± 0.014
VFYLNLLNQTRV | 0.629 ± 0.016
PAPAPPPPAVPL | 0.612 ± 0.018
KKSLNTKIQTRE | 0.707 ± 0.029
PPSPPSHTPPPS | 0.695 ± 0.051
VLSRPLSFPAGI | 0.61 ± 0.047
PAAPPHGFPPPR | 0.6341 ± 0.0046
GAGSRRRNWGGW | 0.711 ± 0.0081
GVWGGVGGWGVA | 0.697 ± 0.053
EGEGGKRGEGKR | 0.624 ± 0.041
KHKKKKKEYKKK | 0.729 ± 0.03
RPSLPPSPLLRP | 0.729 ± 0.0049
HSRRCDGLPGWV | 0.671 ± 0.03
LRRSPPNPLLKA | 0.634 ± 0.021
IEKYRKNKKTGK | 0.677 ± 0.016
SVVLGSVHVLTR | 0.661 ± 0.015
FWSCCCTLLFCV | 0.5974 ± 0.002
CVLFYPLLLPGV | 0.599 ± 0.035
SSPAYPYWTRIF | 0.777 ± 0.14
PALPPPPPSPPL | 0.676 ± 0.15

Sequence | protein stability index
RGRLVVGAGRED | 0.697 ± 0.049
FPPTGPPYFPPT | 0.615 ± 0.062
CESASGAAWLGG | 0.723 ± 0.029
PSPPPSSAPYPS | 0.609 ± 0.077
PPPPFLLPPLLD | 0.707 ± 0.012
PPPRLDTGAAQP | 0.665 ± 0.0097
VLAGLTWQIAEL | 0.668 ± 0.023
SPHPPPSSPPPP | 0.674 ± 0.097
SHPPPALVPLFK | 0.678 ± 0.016
SSNVTVLGVLYC | 0.6973 ± 0.0049
WLLGLRPTVSKE | 0.756 ± 0.068
AVVVCGGGWWWA | 0.746 ± 0.094
SHAGTEAGPGWM | 0.782 ± 0.2
AGLDRFLVIWGI | 0.6106 ± 0.0061
LGLRSRIYMLVD | 0.664 ± 0.0083
CLPHSLPHPPPH | 0.6791 ± 0.0056
SPLISYQPPTDP | 0.725 ± 0.061
RLRPRHPRLLRS | 0.735 ± 0.034
PPALRPPPPPPP | 0.6932 ± 0.0019
PPPPPSPSASSP | 0.491 ± 0.11
NLRKGHSDERVV | 0.691 ± 0.071
LRVFKVCSGISG | 0.642 ± 0.045
RWGVRFWVGDSV | 0.687 ± 0.017

Sequence | protein stability index
MEGNQTSVRGRT | 0.677 ± 0.083
DRSSVLSPFHPL | 0.76 ± 0.019
SYNYMSIVMYRL | 0.587 ± 0.0071
AGLRMALGVGIP | 0.6975 ± 0.0065
CLSCLFFRVFAD | 0.573 ± 0.08
EDHSCVFSAFCF | 0.663 ± 0.045
LTHTVLVGSALN | 0.647 ± 0.024
VLFCSVSFGGGQ | 0.614 ± 0.091
VSLLIPVGVYPR | 0.667 ± 0.015
PPPFRPPPRLYS | 0.693 ± 0.025
RGGGRGVWGHVV | 0.607 ± 0.0063
SVSGRYYAVRVR | 0.566 ± 0.0072
RGVWWWWGVAGA | 0.749 ± 0.17
GGGARWAGLGEG | 0.687 ± 0.06
SLQGLLSIVNYR | 0.78 ± 0.15
FCSSSSFMCFVQ | 0.629 ± 0.0082
ECGNYRGPYRTR | 0.678 ± 0.026
GRGGLGGGEWDR | 0.711 ± 0.0028

— the supplement of paper PMC10724198
